B1: Lf-^59Fe: Native bovine lactoferrin treated at pH 1 and saturated with ^59Fe labeled iron (85% to 100% saturation) (protein, UniProt P24627 20-708, looked up)
Lactotransferrin: APRKNVRWCTISQPEWFKCRRWQWRMKKLGAPSITCVRRAFALECIRAIAEKKADAVTLDGGMVFEAGRDPYKLRPVAAEIYGTKESPQTHYYAVAVVKKGSNFQLDQLQGRKSCHTGLGRSAGWIIPMGILRPYLSWTESLEPLQGAVAKFFSASCVPCIDRQAYPNLCQLCKGEGENQCACSSREPYFGYSGAFKCLQDGAGDVAFVKETTVFENLPEKADRDQYELLCLNNSRAPVDAFKECHLAQVPSHAVVARSVDGKEDLIWKLLSKAQEKFGKNKSRSFQLFGSPPGQRDLLFKDSALGFLRIPSKVDSALYLGSRYLTTLKNLRETAEEVKARYTRVVWCAVGPEEQKKCQQWSQQSGQNVTCATASTTDDCIVLVLKGEADALNLDGGYIYTAGKCGLVPVLAENRKSSKHSSLDCVLRPTEGYLAVAVVKKANEGLTWNSLKDKKSCHTAVDRTAGWNIPMGLIVNQTGSCAFDEFFSQSCAPGADPKSRLCALCAGDDQGLDKCVPNSKEKYYGYTGAFRCLAEDVGDVAFVKNDTVWENTNGESTADWAKNLNREDFRLLCLDGTRKPVTEAQSCHLAVAPNHAVVSRSDRAAHVKQVLLHQQALFGKNGKNCPDKFCLFKSETKNLLFNDNTECLAKLGGRPTYEEYLGTEYVTAIANLKKCSTSPLLEACAFLTR
modifications: 59Fe iron-saturated
B2: Cell culture tube 1: Table III tube: Lf-^59Fe 1 mg/ml alone (protein, UniProt P24627 20-708, looked up)
Lactotransferrin: B1 Lactotransferrin
modifications: 59Fe iron-saturated
B3: Cell culture tube 2: Table III tube: Lf-^59Fe 0.1 mg/ml alone (protein, UniProt P24627 20-708, looked up)
Lactotransferrin: B1 Lactotransferrin
modifications: 59Fe iron-saturated
B4: Cell culture tube 3: Table III tube: Lf-^59Fe 0.01 mg/ml alone (protein, UniProt P24627 20-708, looked up)
Lactotransferrin: B1 Lactotransferrin
modifications: 59Fe iron-saturated

Columns and labels:
[1] = system: Intestinal epithelial cells of the Caco-2 line; assay: Iron fixation at the cellular level over 16 hours of culture (Example 1, FIG. 1); format: cell-based, human; details: Caco-2 cells, no L-arginine
Experimental: Native bovine Lf was treated at pH 1 so as to substitute the unlabeled iron that it contained in the natural state with ^59Fe labeled iron.
The Lf-^59Fe was then purified in order to remove the nonfixed labeled iron, by gel filtration on a column of SEPHADEX® G-75.
(§1) Intestinal epithelial cells of the Caco-2 line derived from a colon cancer were incubated in a proportion of 2×10^6 cells per ml in an RPMI 1640 medium buffered at pH 7.4, in the presence of 25 mmolar of Hepes, containing 15% (v/v) of fetal calf serum, 2 mmol/l of L-glutamine and 1% (v/v) of a solution of streptomycin-penicillin, sold by the company Gibco.
(§2) Iron fixation at the cellular level was then initiated by adding Lf-^59Fe and/or labeled iron and/or L-arginine.
(§3) One of the cell culture tubes received none of these three constituents, so as to act as a control.
The distribution of the constituents, and also the concentrations at which they were used, appear in Table I below:
The cells were then incubated for a period of 16 hours in Eppendorf tubes kept stirring for the final 2 hours of the culture period. Throughout the incubation period, the amount of cellular iron was measured by centrifugation pellet of the cells a first time after 30 minutes (t=0.5), then after one hour (t=1), and then every hour (t=2 to t=16), using a device for measuring the radioactivity.

[2] = system: Intestinal epithelial cells of the Caco-2 line; assay: Degree of iron fixation at the cellular level as a function of concentrations (Example 3); format: cell-based, human; details: Caco-2 cells, after 72 hours of incubation; tube contents per Table III (mg/ml); Control = 1
Experimental: as §1
Twelve tubes of epithelial cell cultures were prepared according to the conditions described above in Example 1.
as §2, §3
The distribution of the constituents, and also the concentrations at which they were used, appear in Table III below:
The degree of cellular fixation of iron was measured after 72 hours of incubation using a device for measuring the radioactivity.

Row | Molecule | Persistence of the iron fixed in the cell [1] | Degree of iron fixation in the cells (cpm ^59Fe) [2] [cpm ^59Fe]
1 | B1 | only transiently fixed | 
2 | B2 |  | 1.2 ± 0.1
3 | B3 |  | 1.0 ± 0.2
4 | B4 |  | 1.1 ± 0.1
